assay: yeast display, Sf9 membrane polyspecificity reagent, FACS + sequencing; frameworks hold sequencing errors
In short: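 Nanobodies from a synthetic yeast display library (Saccharomyces cerevisiae BJ5465), induced 36–48 hours with galactose, were stained 1 hour at 4 °C with 10% biotinylated, detergent-solubilized Sf9 membrane reagent, enriched on streptavidin microbeads, then FACS-sorted. Anti-HA (expression) and streptavidin (reagent binding) fluorescence set low and high (top ~1%) gates. Polyreactivity labels come from the gate of origin. Genes were colony-PCR amplified, MiSeq 2 × 250 sequenced and filtered by CDR length.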

Sequence | polyreactivity (PSR sort gate)
QVQLVESGGGLVQAGGSLRLSCAASGFIIVKYAMGWYRQAPGKERELVAAITRGGRTYYADSVKGRFTISRDNAKNTVYLQMNSLKPEDTAVYYCNKARFYDPWLGKYGYKYDYWGQGTQVTVSS | high polyreactivity
QVQLVESGGGLVQAGGSLRLSCAASGFIIVRYAMGWYRQAPGKERELVAAITRSGGSTYYADSVKGRFTISRDNAKNTVYLQMNSLKPEDTAVYYCNAYRQGFTYARMDYWGQGTQVTVSS | high polyreactivity
QVQLVESGGGLVQAGGSLRLSCAASGFIIVRYAMGWYRQAPGKERELVASITKSGGSTYYADSVKGRFTISRDNAKNTVYLQMNSLKPEDTAVYYCAATVVSRTRYYYRGQRYDYWGQGTQVTVSS | high polyreactivity
QVQLVESGGGLVQAGGSLRLSCAASGFIIVYYAMGWYRQAPGKERELVAAISRSGGSTYYADSVKGRFTISRDNAKNTVYLQMNSLKPEDTAVYYCNAVNVLAPSRGRRYDYWGEGTQVTVSS | high polyreactivity
QVQLVESGGGLVQAGGSLRLSCAASGFIIYGYVMGWYRQAPGKERELVAAINSSSGRTYYADSVKGRFTISRDNAKNTVYLQMKSLKPEDTAVYYCAAYYYGSYDGTPYDYWGQGTQVTVSS | low polyreactivity
QVQLVESGGGLVQAGGSLRLSCAASGFIIYKYAMGWYRQAPGKERELVAAISWSGGSTYYADSVKGRFTISRDNAKNTVYFQMNSLKPEDTAVYYCAARQWSQGWYDYWGQGTQVTVSS | high polyreactivity
QVQLVESGGGLVQAGGSLRLSCAASGFILARYAMGWYRQAPGKERELVAVISSGGSSTFYADSVKGRFTISRDNAKNTVYLQMNSLKPEDTAVYYCAARYKSSKKVGFDYWGQGTQVTVSS | high polyreactivity
QVQLVESGGGLVQAGGSLRLSCAASGFILDNYAMGWYRQAPGKERELVAAISGSGGSTFYADSVKGRFTISRDNAKNTVYLQMNSLKSEDTAVYYCNRDRLLRQYDYWGQGTQVTVSS | high polyreactivity
QVQLVESGGGLVQAGGSLRLSCAASGFILDTYGMGWYRQAPGKERELVAAISQSDVSTYYADSVKGRFTISRYNAKNTVYLQMNSLKPEDTAVYYCAADRAGLRWFWQVLYDYWGQGTQVTVSS | low polyreactivity
QVQLVESGGGLVQAGGSLRLSCAASGFILGLNAMGWYRQAPGKEREFVADISWSGDSTYYADSVKGRFTISRDNAKNTVYLQMNSLKPEDTAVYYCAADPYYNWCYYYWGQGTQVTVSS | low polyreactivity
QVQLVESGGGLVQAGGSLRLSCAASGFILGQYAMGWYRQAPGKERELVAAISGSSSTTYADCVKGRFTISRDNAKNTVYLQMNSLKPEDTAVYYCAAYYWYVTYFRREIAYEYWGQGTQVTVSS | low polyreactivity
QVQLVESGGGLVQAGGSLRLSCAASGFILGWYAMGWYRQAPGKERELVADISASGTRTYYADSVKGRFTISRDNAKNTVYLQMNSLKPEDTAVYYCNVYTKFVYAYDYWGQGTQVTLSS | high polyreactivity
QVQLVESGGGLVQAGGSLRLSCAASGFILGYNAMGWYRQAPGKERELVADITFSGGGTNYADSVKGRFTISRDNAKNTVYLQMNSLKPEDTAVYYCNAAAFSQLRVRYDYWGQGTQVTVSS | low polyreactivity
QVQLVESGGGLVQAGGSLRLSCAASGFILKYNAMGWYRQAPGKERELVAAISSNGGRTYYADSVKVRFTISRDNAKNTVYLQMKSLKPEDTAVDYCAAGRLQPVLGGYWGQGSQVTVSS | low polyreactivity
QVQLVESGGGLVQAGGSLRLSCAASGFILKYYAMGWYRQAHGKERELVAAITVSGGSTYYADSVKGRFTISRDNAKNTFYLQMNSLKPEDTAVYYCNADYPRGGAGLLDYWGQGTQVTVSS | low polyreactivity
QVQLVESGGGLVQAGGSLRLSCAASGFILPHNAMGWYRQAPGKERELVAAISGSGGSTYYADSVKGRFTISRDNAKNTVYLQMNSLKPEDTAFYYCNADVWVYPYDYWGQGTQVTVSS | low polyreactivity
QVQLVESGGGLVQAGGSLRLSCAASGFILRYYAMGWYRPAPGNERELVAAISSGGGTYYADSVKGRFTISRDNAKNTVYLQMNSLKPEDTAVYYCNKASTSYYRFNYWGQGTQVTVSS | high polyreactivity
QVQLVESGGGLVQAGGSLRLSCAASGFILSNYAMGWYRQAPGKERELVAAIRWSGGSTYYADSVKGRFTISRDYAKNTVYLQMNSLKPEDTAVYYCNKVRPFSWYGLDYWGQGTQVTVSS | high polyreactivity
QVQLVESGGGLVQAGGSLRLSCAASGFILSPNTMGWYRPAPGKERELVAAISTDVSTYADSVKGRFTISRDNAKNTVYFQMNSLKPEDTAVYYCNADDFGYASYEYWGQGTQVTVSS | low polyreactivity
QVQLVESGGGLVQAGGSLRLSCAASGFILYDYAMGWYRQAPGKEREFVAAISWSGGRTYYADSVKGRFTISRDNAKNTVYLLLNSLNPEASAVYYCAVDAYRYWWTTYVSDFDYWGQGTQLTVSS | high polyreactivity
QVQLVESGGGLVQAGGSLRLSCAASGFILYSYAMGWSRQAPGKEREFVSVISRGGGRTYYADSVKGRFTISRDNAKNTVYLQMNSLKPEDTAVYYCAAGSRSPHWYTRELDYWGQGTQVTVSS | low polyreactivity
QVQLVESGGGLVQAGGSLRLSCAASGFILYYYAMGWSRQAPGKERELVAAISWSGDSTYYADSVKGRFTISRDNAKNTVYLQMNSLKPEDTAVYYCAATWQLTHRYYWGQGTQVTVSS | low polyreactivity

Sequence | polyreactivity (PSR sort gate)
QVQLVESGGGLVQAGGSLRLSCAASGFISAGYAMGWYRQAPGKERELVAAITRTGSTNYADSVKGRFTISRDNAKNTVYLQMNSLKPEDTAVYYCAAGRRGSAGYYRQFGYGYWGQGTQVTVSS | high polyreactivity
QVQLVESGGGLVQAGGSLRLSCAASGFISAYNAMGWYRPAPGKERELVAAITSGATTKYADSVKGRFTISRDNAKNTVYFQMHSLKPEDTAVYYCAAAPKRRYYVHSGGAYGYWGQGTQVTVSS | high polyreactivity
QVQLVESGGGLVQAGGSLRLSCAASGFISDVYAMGCYRQAPGKERELVAVITWRGSTYYAYSVKGRFTISRDNAKNTVYLQMNSLKPEDTAVYYCAAESQGDWAFDYWGQGTQVTVSS | low polyreactivity
QVQLVESGGGLVQAGGSLRLSCAASGFISFAYAMGWYRQAPGKERELVAGISRSGDSTYYADSVKGRFTISRDNAKNTVYLQMNSLKPEDTAVYYCAVVTYRSKAHSSRNGKYYYWGQGTQVTVSS | low polyreactivity
QVQLVESGGGLVQAGGSLRLSCAASGFISFGNAMGWYIQAPGKERELVAGISRSGGSTYYADSVKGRFTISRDNAKNTVYLQMYSLKPEDTAVYYCATRVAIYPYRFDYWGQGTQVTVSS | high polyreactivity
QVQLVESGGGLVQAGGSLRLSCAASGFISGYYTMRWYRQAPGKERELVAVINSGGSTYYADSVKGRFTISRDNAKNTVYFQMNSLKPEDTAVYYCAKLGGKYSRYYYWGHGTQVTVSS | low polyreactivity
QVQLVESGGGLVQAGGSLRLSCAASGFISPKYGMGWYRQAPGKERELVAAITPSDGSTSYADSVKGRFTISRDNAKNTVYLQMNSLKPEDTAVYYCNKSRYKSYSYDYWGQGTQVTVSS | high polyreactivity
QVQLVESGGGLVQAGGSLRLSCAASGFISPSYAMGWYRPAPGKERELVAAIRSSDGSTYYADSVKGRFTISRDNAKNTVYLQMNSLKPEDTAVYYCAAGGSYYRDDYWGQGTQVTVSS | low polyreactivity
QVQLVESGGGLVQAGGSLRLSCAASGFISPSYDMGWYRQAPGKEWELVAAIRSSDGSTYYADSVKGRFTISRDNAKNTVYLQMNSLKPEDTAVYYCNKGVVLTLYVGMDYWGQGTQVTVSS | low polyreactivity
QVQLVESGGGLVQAGGSLRLSCAASGFISRKNAMGWYRQAPGKERELVAAISKSGGRTYYADSVKGRFTISRDNAKNTVYLQMNSLKPEDTAVYYCNRVPRDSWPYAWYDYWGQGTQVTVSS | high polyreactivity
QVQLVESGGGLVQAGGSLRLSCAASGFISTPYAIGWYRQAPGKERELVAAIDISGGRTYYADSVKGRFTISRDNAKNTVYLQMNSLKPEDTAVYDCAAQLVSSYYAWYRTYYYWGQGTQVTVSS | high polyreactivity
QVQLVESGGGLVQAGGSLRLSCAASGFISYTYMGWYRQAPGKERELVAGITGSGGSTYYADSVKGRFTISRDNAKNTVYLQMNILKPEDTAVYYCAAPRYLSYVRRYDYWGQGTQVTVSS | high polyreactivity
QVQLVESGGGLVQAGGSLRLSCAASGFISYYYAMGWYRQAPGKDWELVAVITSGGSTDYADSVKGRFTISRDHAKNTVYLQMNSLKPEDTAVYYCARDDPASHKRYWHDYWGQGTQVTVSS | low polyreactivity
QVQLVESGGGLVQAGGSLRLSCAASGFISYYYAMGWYRQAPGKEREFVAAITSSGGSTRYADSVKGRFTISRDNAKNTVYLQMNSLKPEDTAVYYCAAGNPYFWPYDYWGQGTQVTVSS | low polyreactivity
QVQLVESGGGLVQAGGSLRLSCAASGFIVDWYTRGWYRQAPGKERELVARISSDGSTTYADSVKGRFTISRDNAKNTVSVQMTSLKPEDTAVYYCAADVTYPGLKYIFDDWGQGTQVTVTS | low polyreactivity
QVQLVESGGGLVQAGGSLRLSCAASGFIVRNYAMGWYSQAPGKERELVASISRGTSTNYADSVKGRFTISRDNAKNTVYLQMNSLKPEDTAVYYCNKRFYYHPFDYWGQGTQVTVSS | high polyreactivity
QVQLVESGGGLVQAGGSLRLSCAASGFIVWVYAMGWYRQAPGKERELVAAITSGGGSTYYADSVKGRFTISRDNAKNTVYLQMNSLKPEHTAVYYCNAVSWEGYDFDYWGQGTQVTVSS | high polyreactivity
QVQLVESGGGLVQAGGSLRLSCAASGFIYDYAMGWYRQAPGKEREFVARINWSGGSTYYADSVKGRFTISRDNAKNTVYLQMNSLKPEDTAVFYCATSGWAWRTSNPYEYWGQGTQVTVSS | low polyreactivity
QVQLVESGGGLVQAGGSLRLSCAASGFIYWYAMGWSRQAPGKERELVAAITWSGGSTYADSVKGRFTISRDNAKNTVYLQMNSLKPEDTAVYYCAADKYSQWSSHTRVRYDYWGQGTQVTVSS | low polyreactivity
QVQLVESGGGLVQAGGSLRLSCAASGFIYYAMGWYRQAPGKERELVAAISRGGTTYYADSVKGRFTISRDNAKNTVYLQMNSLKPEVTAVSYCNAVGYRAVGYKTGYARYGYWGQGTQVTVSS | high polyreactivity
QVQLVESGGGLVQAGGSLRLSCAASGFLFYYNAMGWYRQAPGKERELVATSTSGGSTNYADSVKGRFTISRDNAKNTVYLQMNSLKPEDTAVYYCAAGHSWVYGYDYWGQGTQVTVSS | low polyreactivity
